Results reported in article PMC8371082, “En route to dynamic life processes by SNARE-mediated fusion of polymer and hybrid membranes” (Nature Communications, 2021).

Target: T1, Syntaxin-1A (183-288) (Rattus norvegicus, UniProt P32851 183-288)
T1 construct: Syntaxin-1A, Rattus norvegicus, residues 183-288
Assay: complex assembly from purified proteins, isolated by ion-exchange chromatography; truncated syb-2, syntaxin-1A and SNAP-25a mixed at 1.5:1:1 molar ratio, incubated at 4 °C overnight, complex purified by ion-exchange chromatography in the presence of CHAPS
Details: both partners purified

T1 sequence (P32851 183-288): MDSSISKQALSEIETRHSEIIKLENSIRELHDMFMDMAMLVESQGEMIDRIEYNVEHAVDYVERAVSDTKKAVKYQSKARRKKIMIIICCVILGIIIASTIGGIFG

B1: Truncated synaptobrevin-2 (49-96) (domain or fragment, Rattus norvegicus, UniProt P63045 49-96, looked up)
chain: NVDKVLERDQKLSELDDRADALQAGASQFETSAAKLKRKYWWKNLKMM
notes: Synaptobrevin-2 (VAMP2), Rattus norvegicus, residues 49-96; also called truncated syb-2; C-terminal syb fragment
  binding result: binds
